# Reference: the DeepSol protein solubility set
# Assay: soluble on expression in E. coli; label from the status in PepcDB or PDB records
row,Sequence,soluble on expression in E. coli
1,MISILYDEIVSCSRCERLIEYRKNFKIPPRFKDWNYWNKPVPGFGDEKAKILIVGLAPALHGGNRTGRVFTGDESGKWVIKGLYALGLSNKEEGKTREDGLEVKEVYLTNTVKCAPPKNKPTREEISNCSRFLIEEIKSLRIKVILALGRIAFDTILSLYGIKSKFYHGVVIKLPDDKILIGSYHPSAQNTKTGRLKWEDWIKILKLAYEIANNPQY,soluble
2,MISRTQRLLSLSTAMLLATTAAAVAEPSEELIAAAKKEGTLTTIALPHNWCGYGDVIAGFKAKYGIEVNELNPDAGSGDEIEAIKANKGNTGPQAPDVIDVGLSFGPSAKAEGLIQPYKVSTWDTIPDTAKDPEGYWYGDYYGVLSFVVNTDIVKDVPKDWADLKKSDYANSVALAGDPRASNQAVQAVYAAGLAAGETDAAKAGEAGLAFFAEVNKAGNFVPVIGKSASLAQGSTPIIIAWDYNGLSWRDSLNGNPPVEVVVPASGVVAGVYVQAISAFAPHPNAAKLWMEYLYSDEGQLGWLKGYCHPIRFNDLVKNGKVPKEMLDKLPPAESYEKAVFPTLDEQAKGKEAITTKWDSVVGASVQ,not soluble
3,MISSIRLDLFRTKVFVMPLKFPLSICLLGTFLVTSAQAQEAVKGVVELFTSQGCASCPPADEALRKMIQKGDVVGLSYHVDYWNYLGWTDSLASKENTERQYGYMRALGRNGVYTPQAILNGRDHVKGADVRGIYDRLDAFKREGQGLNVPVSSKFAGDEVEIDIGAGNGKADVVVAYFTREQTVDVQKGENQGKKMSYWHSVYDVQTVGMWDGSPMTVKLPASVVAKVKKGGCAVLLQTANASGDPAAIVGASILLGNETQLEHHHHHH,soluble
4,MISVTDLRPGTKVKMDGGLWECVEYQHQKLGRGGAKVVAKFKNLETGATVERTFNSGEKLEDIYVETRELQYLYPEGEEMVFMDLETYEQFAVPRSRVVGAEFFKEGMTALGDMYEGQPIKVTPPTVVELKVVDTPPGVRGDTVSGGSKPATLETGAVVQVPLFVEPGEVIKVDTRTGEYVGRA,soluble
5,MITAERYHDISMGHRVVGHDHKCRHLHGHNYRIHFICSAPALDSIGRVVDFGVIKELLCQWLEDHWDHKMMLWEQDPLLPALRATVPDDLVAVPFNPTAENMAVYLTEVVGPMQLAGTGVTLIGCRVDETRKCSASYTL,not soluble
6,MITTFETILDKIKAHQTIIIHRHQNPDPDALGSQAGLKEIIAQNFPDKKVLMTGFDEPSLAWISQMDQVTDKDYKEALVIITDTANRPRIDDERYTLGKCLIKIDHHPNDDVYGDFYYVDTSASSASEIIADFAFSQNLTLSDKAAKLLYTGIVGDTGRFLYASTTSKTLSIASQLRHFEFDFAAISRQMDSFPLKIAKLQSYVFEHLTIDESGAAYVLVSQETLKHFDVTLAESSAIVCAPGKIDNVQAWAIFVELTDGNYRVRMRSKEKIINGIAKRHGGGGHPLASGANSANLEENQAIFRELIAVCQEILEHHHHHH,soluble
7,MITVVIASRLREDRLDYLTAMHASLTRQSVPWEAVIALDGASPDRLPRQLAQDPRVDTLVLPRPVGAACARNLALTQVRTRYVNWADDDDEFTDDAMSVRLETLESTGVGWCAGWSEDQFRDGSTRLWRCPTPPGRHEAGDVWTFWKSPADTIPIGPTTILARTDLVRAAPMGGLVQGEDYCAALGVTALAPGILLPLPVYRYRKWGGQMTAQDGYDQLETAAREHAWAYGRSLRAVLRGGEDLVHVLEHHHHHH,not soluble
8,MITYYVRQLKTFSIMSLTLSNVILHKLVKNEQDELEVCLRNQTLENEEFTEALVSELHRVFNSKAGKGFGVFKTESEFGHWLSSVRKNETPFLEFSNNSAEKLKSELIKYPFAEEGILVIAEYQSLATEYLFVAVLPSNESMKVTEQLDISATDYLDIAKMDIAARIDLSTWETDSDSNRYLTFIKGRVGRKVSDFFLDFLQADVGMDTKVQNQVLMQAVEDFCADERLDQEEKQPYRKQVYDYCNGQLQAGEELTVKELASELPTSESGSNFYQFAEEQGYELEESFPVDRTALRKLTKFVGAGGGLSLNFDAMLLGERVFYDPETDTLTIKGTPPNLKDQLEHHHHHH,not soluble
9,MIVAFENNVVCSDEKVRDYLLAHHADLKEDQDEDALCLVRLHKEEDIDGTDRVDLAGWREISRELYWTGEQMECNYSIIRFSRKTTSLQMSVVLSTCNQLEWLEKVLWGYEAQDTKNFELIIADDGSRKETYDMLQRITPQLSFQVKHVWHEDKGFRKCDILNKGILAAQADYLLFSDGDCIPRKDFVSTHLCLRRKGRFLSGGYHKLSMDLSKDITKDDILSGRCFDLQWMRGKGMPASFKNNKLTATGFKRWALNTFTPTKASWNGHNASGWLSDILAVNGFDERMQYGGQDREFGERLENYGIHGMQIRYSTVCLHLDHARGYKTKDSIQKNRNIRKHTRGAKVQWASLGIVKDELRGQSVKVNSYYDRYTREEEKLTSYKEKGGFYRHIYSLPCRWRRAKYHDKVVRAYQQDTDAPALSNHSGVIVSLTTFPPRISQLHLMLKSILWQTCPPEKIIVWLSEQEFPGRLNDLPEELKRLMAKGIAFRFVSENFRSHKKYHYVFREYPDSKVITVDDDLIYPRNTVERLLSLSYQYPDTVCGNVIRKIHMDGNSFSVYRKWTKVFTMPVNSSLQNVAIGCGGIYYPPHWYGEELFDWKIISEHCPSADDLWLKANELKRRVKVTGGGEFYPRPIELPQTQNNSLQKKNNGKTNLNDKQWKSLNELWKLDELYCINGK,not soluble
10,MIVFSDLDRSIIYSNKFLNADSKYANIEIYREKEISYISLDTINLIKQIQYYGMFIPTTTRTVEQFKRIEFNKYGIYFPWSITSNGGVILKDNEILKSWSEKIDKLKSNYEPIESMIHKFKDYLNVDGITNFKVAEDTFFYIVVDLSRFNLDSIKEYTNILESKNWKFYVSGRKIYFIPKEISKENAIKYLTKELGIEYFYAVGDSIMDYGMLNISNKSYVLKHGDINKNEIENSFISSSFNGMSGTEEILSNILDENCLLNI,not soluble
11,MIVLGIESSCDETGVGIIDLADDGTMTIVGDAVASSMEQHARFGGVVPEIASRAHLESMIPVMKEALAQAGVERPDAVAATVGPGLAGALLVGASAAKAYAAAWGVPFYGVNHLGGHVAVANLEGEELPHSIALLVSGGHTQILEVQAVGKPMRELGSTLDDAAGEAYDKVARLLGLGYPGGPVVDKLAARGNRKAIRFPRGLSRADDLRGEHRYDFSFSGVKTSVARYVESAEREGRVISVEDVCASFQEAVVDVLTSKAIMACKDTGASVLLLGGGVAANSRLRELAAARCQSASIELRVPSFKLCTDNGVMIAAVASQLIHEGAQPSGLSVGTDTSLEVEIPLVHSL,not soluble
12,MIVSILGAGAMGSALSVPLVDNGNEVRIWGTEFDTEILKSISAGREHPRLGVKLNGVEIFWPEQLEKCLENAEVVLLGVSTDGVLPVMSRILPYLKDQYIVLISKGLIDFDNSVLTVPEAVWRLKHDLRERTVAITGPAIAREVAKRMPTTVVFSSPSESSANKMKEIFETEYFGVEVTTDIIGTEITSALKNVYSIAIAWIRGYESRKNVEMSNAKGVIATRAINEMAELIEILGGDRETAFGLSGFGDLIATFRGGRNGMLGELLGKGLSIDEAMEELERRGVGVVEGYKTAEKAYRLSSKINADTKLLDSIYRVLYEGLKVEEVLFELATFK,soluble
13,MIVSSLRGGLGNQMFIYAMVKAMALRNNVPFAFNLTTDFANDEVYKRKLLLSYFALDLPENKKLTFDFSYGNYYRRLSRNLGCHILHPSYRYICEERPPHFESRLISSKITNAFLEGYWQSEKYFLDYKQEIKEDFVIQKKLEYTSYLELEEIKLLDKNAIMIGVRRYQESDVAPGGVLEDDYYKCAMDIMASKVTSPVFFCFSQDLEWVEKHLAGKYPVRLISKKEDDSGTIDDMFLMMHFRNYIISNSSFYWWGAWLSKYDDKLVIAPGNFINKDSVPESWFKLNVRMAGDPLEHHHHHH,not soluble
14,MIVTKDYSKESRVNENSKYGTLISDWYLKGRLTSLESQFINALDILETYHYGEKEYKDAKDKLMTRILGEDQYLLERKKVQYEEYKKLYQKYKEENPTSKLKLKTFDQYTIEDLTMREYNELTESLKSAVKDFEKDVEKIENQHHDLKPFTDEMEEKATSRVDDLANKAYSVYFAFVRDTQHKTEALELKAKVDLVLGDEDKPHRISNERIEKEMIKDLESIIEDFFIETGLNKPGNITSYDSSKHHYKNHSEGFEALVKETREAVANADESWKTKTVKKYGESETKSPVVKEENKVEDPQSPKFDNQQEVKTTAGKAEETTQPVAQPL,soluble
15,MIVVLKMGADKNEVKKLIEAIGREGVEVNPIDGTELTVLGLVGDTSKIDAKRIEANKVVEKVMHVVEPFKKANRKFHPEPSIINVNGMEIGSKKIAMIAGPCSVETEDQIVSIAKDVKKSGAGFLRGGAFKPRTSPYAFQGLKYDGLDLLKKAKEKTGLPIVTEIMSTQDIDIFEENVDVIQVGARNMQNFDLLKELGKTNKTILLKRGLSATIEEWLMSAEYIMAGGNENVVLCERGIRTFETYTRNTLDLSAILAVKKLSHLPVIVDPSHAAGKSWMVDSLSKAAIAVGADGLIIEVHNDPAHALCDGKQSIKPNEYDELISELKTIASAVGREI,not soluble
16,MIYQPDENRYHTMEYRRCGRSGVKLPAISLGLWHNFGDTTRVENSRALLQRAFDLGITHFDLANNYGPPPGSAECNFGRILQEDFLPWRDELIISTKAGYTMWDGPYGDWGSRKYLIASLDQSLKRMGLEYVDIFYHHRPDPETPLKETMKALDHLVRHGKALYVGISNYPADLARQAIDILEDLGTPCLIHQPKYSLFERWVEDGLLALLQEKGVGSIAFSPLAGGQLTDRYLNGIPEDSRAASGSRFLKPEQITADKLEKVRRLNELAARRGQKLSQMALAWVLRNDNVTSVLIGASKPSQIEDAVGMLANRRFSAAECAEIDAILEGRF,not soluble
17,MKALNLKTPGREDDDVDEVLDENTVQDVNENIMLKGLGGKENLQTIDHCATRLRLTVKDTALVDEALLKKAGAKGVVKSGGQSVQVIIGPNVEFAAEELRAAVK,not soluble
18,MKANRWFGMAQPKSGKMNMNILHQEELIAQKKREIEARMEQKARQSHVPSPQPPHPGEIADAHNSCISNKFANDGSFLQQFLKLQKAQTSTDSAPRAPPSMPTPSSLKKPLVLSKRTGLGLSSPTGPVKNYSHAKQLPVAHRPSVFQSPDDDEEEDYEQWLEIKVSPPEGAETRRVIEKLARFVAEGGPELEKVAMEDYKDNPAFTFLHDKNSREFLYYRRKVAEIRKEAQKPQAATQKVSPPEDEEAKNLAEKLARFIADGGPEVETIALQNNRENQAFSFLYDPNSQGYRYYRQKLDEFRKAKAGSTGSFPAPAPNPSLRRKSAPEALSGAVPPITACPTPVAPAPAVNPTPSIPGKPTATAAVKRKRKSRWGPEEDKVEFHLLNWHRGT,soluble
19,MKAPELLLPAGGLERMRAAYDYGADAVYAGSPRYSLRARNNEFAKLDVLEQGIKEAHERNKKFFLTVNTLPHNSKLKTFVADMEPLIAMKPDALIMADPGLIMTVREKWPEMPIHLSVQANTTNYWGVKFWQNIGVERIILSRELSMEEIAEIRQECPDIELEVFIHGALCIAYSGRCLLSGYFNHRDPNQGTCTNSCRWDYKVHNATESDAGDAQLLQGFNFEKAQEEANQNFEGINGQKRHPYADKVFLIEESNRPGEMMPIMEDEHGTYIMNSKDLRGIEVVEKLAKIGVDSLKVEGRTKSLYYVARVAQSYRKAIDDAVAGRPFDYSLLSELEGLANRGYTSGFLERHQTQDYQNYLTGHSTAKQSQYVGHVTEIDENGWATVEVKNRFAVSDSLEIIHPSGNQTIKLEQMTRKGQPVDVAPGNGIQVKIPNMQGKEKALIARVLNP,not soluble
20,MKASFKGKFDVDKSGSVASLTFNAGNAKLRATMTDASFVAGPSFNGLSLAVEKPGFFIIDYNVPKKDVRFQFMNTIRIAEKPLNLTYIHMRGDNRTIVDGSFVIDPANKLSANYMVGTKNCKLKYTYVHGGIATFEPCYDVAKNMWDFAISHKLYGGDNLKATYQTSSKMLGLEWSNNSKSTGSFKVCASMNLAEELKPPKLTAETTWNLEL,soluble
